Nine molecules from US20200270125A1 (OMEROS, published 2020) can be followed below.

To fix the notation:
T1: human MASP-3 (construct not stated) (human)
T1 construct: also called MASP-3 antigen
T1 chain: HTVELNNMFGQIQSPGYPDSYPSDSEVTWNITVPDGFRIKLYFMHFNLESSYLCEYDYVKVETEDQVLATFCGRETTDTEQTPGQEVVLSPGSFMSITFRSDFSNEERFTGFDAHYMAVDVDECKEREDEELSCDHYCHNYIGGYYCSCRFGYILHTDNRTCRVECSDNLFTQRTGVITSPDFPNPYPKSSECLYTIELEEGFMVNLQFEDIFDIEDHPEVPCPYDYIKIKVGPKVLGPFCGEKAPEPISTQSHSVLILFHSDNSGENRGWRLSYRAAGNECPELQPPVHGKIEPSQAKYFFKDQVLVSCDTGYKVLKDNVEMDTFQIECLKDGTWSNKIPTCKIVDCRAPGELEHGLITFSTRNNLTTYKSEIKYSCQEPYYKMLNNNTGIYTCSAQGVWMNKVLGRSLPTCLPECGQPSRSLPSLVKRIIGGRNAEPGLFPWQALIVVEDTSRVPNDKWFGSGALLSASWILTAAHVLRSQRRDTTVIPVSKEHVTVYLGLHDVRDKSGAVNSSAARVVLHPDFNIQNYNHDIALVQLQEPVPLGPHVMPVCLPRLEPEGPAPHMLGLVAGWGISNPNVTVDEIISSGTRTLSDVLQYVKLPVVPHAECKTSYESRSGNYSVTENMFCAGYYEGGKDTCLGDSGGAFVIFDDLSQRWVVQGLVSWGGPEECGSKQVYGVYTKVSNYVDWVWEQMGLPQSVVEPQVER

B1: h4D5_14-1 Fab (VH-14 and VL-1) (Fab, V domains shown)
VH: QVQLVQSGAEVKKPGASVKVSCKASGYTFTTDDINWVRQAPGQGLEWIGWIYPRDDRTKYNDKFKDKATLTVDTSSNTAYMELSSLRSEDTAVYYCSSLEDTYWGQGTLVTVSS
VL: DIVMTQSPDSLAVSLGERATINCKSSQSLLNSRTRKNYLAWYQQKPGQPPKLLIYWASTRESGVPDRFSGSGSGTDFTLTISSLQAEDVAVYYCKQSYNLYTFGQGTKVEIKR
notes: Humanized monovalent Fab
B2: h13B1_9-1 Fab (VH-9 and VL-1) (Fab, V domains shown)
VH: QVQLVQSGAEVKKPGASVKVSCKASGYTFTGKWIEWVRQAPGQGLEWIGEILPGTGSTNYAQKFQGRATFTADSSTSTAYMELSSLRSEDTAVYYCLRSEDVWGQGTLVTVSS
VL: DIVMTQSPDSLAVSLGERATINCKSSQSLLNSRTRKNYLAWYQQKPGQPPKLLIYWASTRESGVPDRFSGSGSGTDFTLTISSLQAEDVAVYYCKQSYNIPTFGQGTKVEIKR
notes: Humanized monovalent Fab
B3: h10D12_49-21 Fab (VH-49 and VL-21) (Fab, V domains shown)
VH: QIQLVQSGSELKKPGASVKVSCKASGYIFTSYGMSWVRQAPGKGLKWMGWINTYSGVPTYADDFKGRFVFSLDTSVRTPYLQISSLKAEDTATYFCARGGEAMDYWGQGTLVTVSS
VL: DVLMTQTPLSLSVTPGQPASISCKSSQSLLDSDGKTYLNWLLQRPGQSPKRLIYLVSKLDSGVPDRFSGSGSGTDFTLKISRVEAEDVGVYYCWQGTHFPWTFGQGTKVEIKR
notes: Humanized monovalent Fab
B4: h13B1_10-1-ST Fab (VH-10 and VL-1-ST) (Fab, V domains shown)
VH: QVQLVQSGAEVKKPGASVKVSCKASGYTFTGKWIEWVRQAPGQGLEWIGEILPGTGSTNYNEKFKGRATFTADSSTSTAYMELSSLRSEDTAVYYCLRSEDVWGQGTLVTVSS
VL: DIVMTQSPDSLAVSLGERATINCKSSQSLLNTRTRKNYLAWYQQKPGQPPKLLIYWASTRESGVPDRFSGSGSGTDFTLTISSLQAEDVAVYYCKQSYNIPTFGQGTKVEIKR
notes: also called 13B1-ST
B5: h13B1_10-1-NA Fab (VH-10 and VL-1-NA) (Fab, V domains shown)
VH: QVQLVQSGAEVKKPGASVKVSCKASGYTFTGKWIEWVRQAPGQGLEWIGEILPGTGSTNYNEKFKGRATFTADSSTSTAYMELSSLRSEDTAVYYCLRSEDVWGQGTLVTVSS
VL: DIVMTQSPDSLAVSLGERATINCKSSQSLLASRTRKNYLAWYQQKPGQPPKLLIYWASTRESGVPDRFSGSGSGTDFTLTISSLQAEDVAVYYCKQSYNIPTFGQGTKVEIKR
notes: Humanized monovalent Fab; also called 13B1-NA
B6: h13B1_10-1-NQ Fab (VH-10 and VL-1-NQ) (Fab, V domains shown)
VH: QVQLVQSGAEVKKPGASVKVSCKASGYTFTGKWIEWVRQAPGQGLEWIGEILPGTGSTNYNEKFKGRATFTADSSTSTAYMELSSLRSEDTAVYYCLRSEDVWGQGTLVTVSS
VL: DIVMTQSPDSLAVSLGERATINCKSSQSLLQSRTRKNYLAWYQQKPGQPPKLLIYWASTRESGVPDRFSGSGSGTDFTLTISSLQAEDVAVYYCKQSYNIPTFGQGTKVEIKR
notes: also called 13B1-NQ
B7: h10D12-45-21-DA Fab (VH-45 and VL-21-DA) (Fab, V domains shown)
VH: QIQLVQSGSELKKPGASVKVSCKASGYIFTSYGMSWVRQAPGKGLKWMGWINTYSGVPTYADDFKGRFVFSLDTSVRTPYLQISSLKAEDTAVYFCARGGEAMDYWGQGTLVTVSS
VL: DVLMTQTPLSLSVTPGQPASISCKSSQSLLDSAGKTYLNWLLQRPGQSPKRLIYLVSKLDSGVPDRFSGSGSGTDFTLKISRVEAEDVGVYYCWQGTHFPWTFGQGTKVEIKR
notes: also called 10D12-DA mutant
B8: h10D12-45-21-GA Fab (VH-45 and VL-21-GA) (Fab, V domains shown)
VH: QIQLVQSGSELKKPGASVKVSCKASGYIFTSYGMSWVRQAPGKGLKWMGWINTYSGVPTYADDFKGRFVFSLDTSVRTPYLQISSLKAEDTAVYFCARGGEAMDYWGQGTLVTVSS
VL: DVLMTQTPLSLSVTPGQPASISCKSSQSLLDSDAKTYLNWLLQRPGQSPKRLIYLVSKLDSGVPDRFSGSGSGTDFTLKISRVEAEDVGVYYCWQGTHFPWTFGQGTKVEIKR
notes: Humanized monovalent Fab; also called 10D12-GA mutant
B9: h10D12-45-21-DE Fab (VH-45 and VL-21-DE) (Fab, V domains shown)
VH: QIQLVQSGSELKKPGASVKVSCKASGYIFTSYGMSWVRQAPGKGLKWMGWINTYSGVPTYADDFKGRFVFSLDTSVRTPYLQISSLKAEDTAVYFCARGGEAMDYWGQGTLVTVSS
VL: DVLMTQTPLSLSVTPGQPASISCKSSQSLLDSEGKTYLNWLLQRPGQSPKRLIYLVSKLDSGVPDRFSGSGSGTDFTLKISRVEAEDVGVYYCWQGTHFPWTFGQGTKVEIKR
notes: also called 10D12-DE mutant

The target in one assay is T1, human MASP-3 (construct not stated). Description: ELISA, monovalent Fab. Background: In an ELISA, binding on a coated surface is turned into a signal by an enzyme label.
For B1, the 50% effective concentration (EC50) (as a rule, the concentration giving half of the maximal effect) is 0.085 nM.

B2: a half-maximal effect (EC50) was put at 0.101 nM.

Regarding B3, the EC50 amounted to 0.115 nM.

The target is the same in the next assay. Description: ELISA, monovalent Fab. This is another data set of the same source.
Molecule B4 displayed an EC50 of 0.12 nM.

Turning to B5, the midpoint of the response, the EC50, lay at 0.105 nM.

Molecule B6 came in with an EC50 of 0.138 nM.

In turn, B7 came in with an EC50 of 0.294 nM.

B8 gave an EC50 of 0.181 nM.

Molecule B9 registered a concentration for a half-maximal effect (EC50) of 0.326 nM.
